Target: C. elegans DPF-3 (C. elegans)
Experiment: cryo-EM structure

stoichiometry N: 2
Substance: C. elegans DPF-3 (enzyme)
